Assay results: patent US20250283871A1, “COMPOSITIONS AND METHODS FOR MODULATING THE INTERACTION BETWEEN SS18-SSX FUSION ONCOPROTEIN AND NUCLEOSOMES” (Dana-Farber Cancer Institute, Inc., priority 2020, published 2025)

Experiments:
[1] = target: ZC11A_HUMAN Zinc finger CCCH domain-containing protein 11A (human) (UniProt O75152); assay: anti-SMARCA4 (BRG1) IP, mass spectrometry, human fibroblasts
[2] = target: ZN326_HUMAN DBIRD complex subunit ZNF326 (human) (UniProt Q5BKZ1); assay: as above
[3] = target: YLPM1_HUMAN Isoform 4 of YLP motif-containing protein 1 (human) (UniProt P49750); assay: as above
[4] = target: UBC_HUMAN Polyubiquitin-C (human) (UniProt P0CG48); assay: as above
[5] = target: UBP2L_HUMAN Isoform 5 of Ubiquitin-associated protein 2-like (human) (UniProt Q14157); assay: as above
[6] = target: ARI1B_HUMAN Isoform 3 of AT-rich interactive domain-containing protein 1B (human) (UniProt Q8NFD5); assay: MS of BAF complexes from Aska-SS cells, shControl against shSS18-SSX, Rep 1
[7] = target: ACL6A_HUMAN Actin-like protein 6A (human) (UniProt O96019); assay: as above
[8] = target: SSXT_HUMAN Protein SSXT (human) (UniProt Q15532); assay: as above
[9] = target: SNF5_HUMAN Isoform B of SWI/SNF-related matrix-associated actin-dependent regulator of chromatin subfamily B member 1 (human) (UniProt Q12824); assay: as above
SSX1; SSX8 (human) = SSX1; SSX8 (human) (UniProt Q16384); assay: as above
[10] = target: BCL7C_HUMAN Isoform 2 of B-cell CLL/lymphoma 7 protein family member C (human) (UniProt Q8WUZ0); assay: as above
BCL7B (human) = BCL7B (human) (UniProt Q9BQE9); assay: as above
[11] = target: SMRC1_HUMAN SWI/SNF complex subunit SMARCC1 (human) (UniProt Q92922); assay: as above
[12] = target: SMCE1_HUMAN SWI/SNF-related matrix-associated actin-dependent regulator of chromatin subfamily E member 1 (human) (UniProt Q969G3); assay: as above
[13] = target: SMRD1_HUMAN SWI/SNF-related matrix-associated actin-dependent regulator of chromatin subfamily D member 1 (human) (UniProt Q96GM5); assay: as above
[14] = target: ZC11A_HUMAN Zinc finger CCCH domain-containing protein 11A (human) (UniProt O75152); assay: anti-SMARCA4 (BRG1) IP, mass spectrometry, Aska-SS cells
[15] = target: TRA2B_HUMAN Transformer-2 protein homolog beta (human) (UniProt P62995); assay: as above
[16] = target: QCR2_HUMAN Cytochrome b-c1 complex subunit 2, mitochondrial (human) (UniProt P22695); assay: as above
[17] = target: XRN2_HUMAN 5'-3' exoribonuclease 2 (human) (UniProt Q9H0D6); assay: as above
[18] = target: ZN326_HUMAN DBIRD complex subunit ZNF326 (human) (UniProt Q5BKZ1); assay: as above
[19] = target: URB2_HUMAN Unhealthy ribosome biogenesis protein 2 homolog (human) (UniProt Q14146); assay: as above
[20] = target: TSP1_HUMAN Thrombospondin-1 (human) (UniProt P07996); assay: as above
[21] = target: YLPM1_HUMAN Isoform 4 of YLP motif-containing protein 1 (human) (UniProt P49750); assay: as above
[22] = target: UCRIL HUMAN Putative cytochrome b-c1 complex subunit Rieske-like protein 1 (human) (UniProt P0C7P4); assay: as above
[23] = target: VIME_HUMAN Vimentin (human) (UniProt P08670); assay: as above
[24] = target: TNR6B_HUMAN Trinucleotide repeat-containing gene 6B protein (human) (UniProt Q9UPQ9); assay: as above
[25] = target: UBC_HUMAN Polyubiquitin-C (human) (UniProt P0CG48); assay: as above
[26] = target: UBP2L_HUMAN Isoform 5 of Ubiquitin-associated protein 2-like (human) (UniProt Q14157); assay: as above

Substance: SMCA4_HUMAN Transcription activator BRG1 (from UniProt P51532 1-1647) (enzyme)
- NSAF [1]: 0
- NSAF [2]: 0
- NSAF [3]: 0.000266
- NSAF [4]: 9.25e-05
- NSAF [5]: 5.74e-05
- LFQ intensity ratio Aska (shControl)/Aska (shSS18-SSX), norm to SMARCA4 [6]: 0.721
- LFQ intensity ratio Aska (shControl)/Aska (shSS18-SSX), norm to SMARCA4 [7]: 0.784
- LFQ intensity ratio Aska (shControl)/Aska (shSS18-SSX), norm to SMARCA4 [8]: 0.959
- LFQ intensity ratio Aska (shControl)/Aska (shSS18-SSX), norm to SMARCA4 [9]: 0.0221
- LFQ intensity ratio Aska (shControl)/Aska (shSS18-SSX), norm to SMARCA4 (SSX1; SSX8 (human)): 8.69
- LFQ intensity ratio Aska (shControl)/Aska (shSS18-SSX), norm to SMARCA4 [10]: 1.74
- LFQ intensity ratio Aska (shControl)/Aska (shSS18-SSX), norm to SMARCA4 (BCL7B (human)): 1.34
- LFQ intensity ratio Aska (shControl)/Aska (shSS18-SSX), norm to SMARCA4 [11]: 0.506
- LFQ intensity ratio Aska (shControl)/Aska (shSS18-SSX), norm to SMARCA4 [12]: 0.894
- LFQ intensity ratio Aska (shControl)/Aska (shSS18-SSX), norm to SMARCA4 [13]: 0.771
- NSAF [14]: 0
- NSAF [15]: 0
- NSAF [16]: 0
- NSAF [17]: 0
- NSAF [18]: 0
- NSAF [19]: 0
- NSAF [20]: 0
- NSAF [21]: 0
- NSAF [22]: 0
- NSAF [23]: 0
- NSAF [24]: 0
- NSAF [25]: 0
- NSAF [26]: 0
